Source: PMC4937785 (Plant and Cell Physiology, 2016)
Values joined by “and” are separate entries in the source; they are usually repeats but may differ in a detail not shown here. Equal entries are not always repeated.

Tests used:
[1] = target: the molecule itself; experiment: native gel or EMSA
[2] = target: the molecule itself; experiment: SEC

Row | Protein | stoichiometry N [1] | stoichiometry N [2]
1 | Flavodiiron protein Flv3 (sll0550) in Synechocystis sp. PCC 6803 (natural protein, UniProt Q55393 1-573, looked up) MFTTPLPPQKRLSTQTEAIAKNITAIRSLDWDRDRFDIEFGLQNGTTYNSYLIQADKVALVDSSHEKFRQLYLDLLQGLIDPQRIDYLIVSHTEPDHSGLVKDILQLNPRITVVATKVALQFLDNFVHQPFERIQVKSGDRLDLGQGHDLEFVSAPNLHWPDTMLTYDPATEILFTCDVFGMHYCSDAVFDIDLGKIAPDYQFYYDCLMGPNARSVLAAMKRMDNLGTISTVANGHGPLLRHNVGELLHRYRHWSESQSKAEKTVVVFYVADYGYGDRLSQAIAKGITKTGVGVDMVDLSSADPQEIQELVGHASGVVLGMPPLQANADLSTNFGAVLAAMQPKQVFGLYESYGGDDEPIDPLRTKFLDLGLREAFKVIKVKDTPSESTYQLCDESGTDLGQNLIQAAKIKQLKSLDSDLEKAIGRISGGLYIITAQKGEVKGAMLASWVSQASFNPPGFTVAVAKDRAIESLMQVGDRFVLNILEEGNYQILMKHFLKRFPPGADRFAGVKTQTASNGSPILTDALAYLECEVASRMECSDHWIVYSQVTNGRVAKAEGLTAVHHRKVGNYY | 2 | –
2 | His-tagged Flv3 expressed in Escherichia coli (natural protein, Synechocystis sp. PCC 6803, UniProt Q55393 1-573, looked up) MFTTPLPPQKRLSTQTEAIAKNITAIRSLDWDRDRFDIEFGLQNGTTYNSYLIQADKVALVDSSHEKFRQLYLDLLQGLIDPQRIDYLIVSHTEPDHSGLVKDILQLNPRITVVATKVALQFLDNFVHQPFERIQVKSGDRLDLGQGHDLEFVSAPNLHWPDTMLTYDPATEILFTCDVFGMHYCSDAVFDIDLGKIAPDYQFYYDCLMGPNARSVLAAMKRMDNLGTISTVANGHGPLLRHNVGELLHRYRHWSESQSKAEKTVVVFYVADYGYGDRLSQAIAKGITKTGVGVDMVDLSSADPQEIQELVGHASGVVLGMPPLQANADLSTNFGAVLAAMQPKQVFGLYESYGGDDEPIDPLRTKFLDLGLREAFKVIKVKDTPSESTYQLCDESGTDLGQNLIQAAKIKQLKSLDSDLEKAIGRISGGLYIITAQKGEVKGAMLASWVSQASFNPPGFTVAVAKDRAIESLMQVGDRFVLNILEEGNYQILMKHFLKRFPPGADRFAGVKTQTASNGSPILTDALAYLECEVASRMECSDHWIVYSQVTNGRVAKAEGLTAVHHRKVGNYY | – | 2 and 4
